Residue numbers refer to the chain shown, from its start. In names and notes the source's numbering stands.
T1: cyno TfR extracellular domain (analogous construct to human TfR ecd) (cynomolgus monkey, UniProt Q5RDH6 87-760 (Pongo abelii entry))
T1 construct: also called cynoTfR ecd
T1 chain: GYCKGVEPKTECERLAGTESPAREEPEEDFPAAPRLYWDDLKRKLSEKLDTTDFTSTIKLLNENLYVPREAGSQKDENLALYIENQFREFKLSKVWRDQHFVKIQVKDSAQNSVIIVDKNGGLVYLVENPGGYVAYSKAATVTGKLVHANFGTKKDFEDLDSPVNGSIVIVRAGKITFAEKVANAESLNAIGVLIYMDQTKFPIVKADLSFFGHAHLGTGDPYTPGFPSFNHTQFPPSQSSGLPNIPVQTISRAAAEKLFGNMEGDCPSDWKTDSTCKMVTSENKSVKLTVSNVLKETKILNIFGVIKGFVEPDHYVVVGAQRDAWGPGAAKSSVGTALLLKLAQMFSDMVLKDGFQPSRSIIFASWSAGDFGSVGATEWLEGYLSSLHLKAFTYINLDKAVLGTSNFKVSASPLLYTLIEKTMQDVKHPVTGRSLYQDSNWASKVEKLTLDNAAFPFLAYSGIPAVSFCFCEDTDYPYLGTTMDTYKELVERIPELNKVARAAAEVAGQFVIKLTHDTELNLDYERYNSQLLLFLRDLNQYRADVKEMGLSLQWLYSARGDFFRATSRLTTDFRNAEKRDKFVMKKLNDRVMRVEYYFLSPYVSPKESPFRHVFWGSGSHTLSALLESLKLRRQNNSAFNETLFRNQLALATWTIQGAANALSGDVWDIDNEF

B1: D101A (antibody, V domains shown)
VH: EVQLVQSGAEVKKPGASVKVSCKGSGYTFTDYAMHWVRQAPGQGLEWMGGISTYFGRTNYNQKFKGRVTMTVDTSISTAYMELSRLRSDDTAVYYCARGLSGNYVMAYWGQGTTVTVSS
VL: DIVMTQSPDSLAVSLGERATINCRASESVDSYGNSFMHWYQQKPGQPPKLLIYRASNLESGVPDRFSGSGSRTDFTLTISSLQAEDVAVYYCQQSNEAPPTFGQGTKLEIK
notes: also called 7A4.v15 D101A (CDR-H3) IgG; copies: 2 + 2
B2: G98A (antibody, V domains shown)
VH: B1 VH with G102A, A107D
VL: B1 VL
notes: also called 7A4.v15 G98A (CDR-H3) IgG; copies: 2 + 2
B3: Y100A (antibody, V domains shown)
VH: B1 VH with Y104A, A107D
VL: B1 VL
notes: also called 7A4.v15 Y100A (CDR-H3) IgG; copies: 2 + 2
B4: S91A (antibody, V domains shown)
VH: B1 VH with A107D
VL: B1 VL with S95A
notes: also called 7A4.v15 S91A (CDR-L3) IgG
B5: T97A (antibody, V domains shown)
VH: B1 VH with A107D
VL: B1 VL with T101A
notes: also called 7A4.v15 T97A (CDR-L3) IgG
B6: Y102A (antibody, V domains shown)
VH: B1 VH with A107D, Y108A
VL: B1 VL
notes: also called 7A4.v15 Y102A (CDR-H3) IgG; copies: 2 + 2
B7: L96A (antibody, V domains shown)
VH: B1 VH with L100A, A107D
VL: B1 VL
notes: also called 7A4.v15 L96A (CDR-H3) IgG; copies: 2 + 2
B8: G95A (antibody, V domains shown)
VH: B1 VH with G99A, A107D
VL: B1 VL
notes: also called 7A4.v15 G95A (CDR-H3) IgG; copies: 2 + 2
B9: M100bA (antibody, V domains shown)
VH: B1 VH with M106A, A107D
VL: B1 VL
notes: also called 7A4.v15 M100bA (CDR-H3) IgG; copies: 2 + 2
B10: E93A (antibody, V domains shown)
VH: B1 VH with A107D
VL: B1 VL with E97A
notes: also called 7A4.v15 E93A (CDR-L3) IgG
B11: Q89A (antibody, V domains shown)
VH: B1 VH with A107D
VL: B1 VL with Q93A
notes: also called 7A4.v15 Q89A (CDR-L3) IgG
B12: P96A (antibody, V domains shown)
VH: B1 VH with A107D
VL: B1 VL with P100A
notes: also called 7A4.v15 P96A (CDR-L3) IgG
B13: N92A (antibody, V domains shown)
VH: B1 VH with A107D
VL: B1 VL with N96A
notes: also called 7A4.v15 N92A (CDR-L3) IgG
B14: P95A (antibody, V domains shown)
VH: B1 VH with A107D
VL: B1 VL with P99A
notes: also called 7A4.v15 P95A (CDR-L3) IgG
B15: 5532 (antibody, V domains shown)
VH: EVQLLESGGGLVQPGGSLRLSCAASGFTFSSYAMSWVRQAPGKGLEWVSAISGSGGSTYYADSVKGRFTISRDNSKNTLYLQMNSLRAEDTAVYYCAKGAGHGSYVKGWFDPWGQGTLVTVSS
VL: EIVLTQSPATLSLSPGERATLSCRASQSVSSYLAWYQQKPGQAPRLLIYDASNRATGIPARFSGSGSGTDFTLTISSLEPEDFAVYYCQQSSNFPFTFGGGTKVEIK
notes: anti-BACE1 IgG
B16: 5583 (antibody, V domains shown)
VH: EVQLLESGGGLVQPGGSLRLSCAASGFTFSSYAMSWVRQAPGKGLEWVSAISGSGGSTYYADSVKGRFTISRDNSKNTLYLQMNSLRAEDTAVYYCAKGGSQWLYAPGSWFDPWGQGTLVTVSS
VL: B15 VL with Q89V, S91R, F96W
notes: anti-BACE1 IgG
B17: 5592 (antibody, V domains shown)
VH: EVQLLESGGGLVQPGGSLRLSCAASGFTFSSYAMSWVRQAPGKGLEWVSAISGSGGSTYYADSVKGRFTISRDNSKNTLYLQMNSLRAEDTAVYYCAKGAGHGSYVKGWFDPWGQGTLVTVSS
VL: B15 VL with S92V
notes: anti-BACE1 IgG
B18: 5983 (antibody, V domains shown)
VH: QLQLQESGPGLVKPSETLSLTCTVSGGSISSSSYYWGWIRQPPGKGLEWIGNIYYSGSTYYNPSLRSRVTISVDTSKNQFFLKLSSVTAADTAVYYCARLGHGYNYFDLWGRGTLVTVSS
VL: EIVLTQSPATLSLSPGERATLSCRASQSVSSYLAWFQQKPGQAPRLLIYDASNRATGIPARFSGSGSGTDFTLTISSLEPEDFAVYYCQQVYVWPPRTFGGGTKVEIK
notes: anti-BACE1 IgG
B19: 5903 (antibody, V domains shown)
VH: B18 VH with N52M, Y60W, R66K, F81S, L100V, Y104I, N105S
VL: B18 VL with F36Y, N53K, V93T
B20: Hu15G11.v1.Fab (Fab, V domains shown)
VH: EVQLVQSGAEVKKPGASVKVSCKASGYTFTSYWMHWVRQAPGQRLEWMGEINPTNGRTNYIEKFKSRVTITRDTSASTAYMELSSLRSEDTAVYYCARGTRAYHYWGQGTMVTVSS
VL: DIQMTQSPSSLSASVGDRVTITCRASDNLYSNLAWYQQKPGKAPKLLLYDATNLADGVPSRFSGSGSGTDYTLTISSLQPEDFATYYCQHFWGTPLTFGQGTKVEIK
notes: Fab
B21: Hu15G11.v3.Fab (Fab, V domains shown)
VH: B20 VH
VL: B20 VL with A43S, L48V
notes: Fab
B22: Hu7A4.v12.Fab (Fab, V domains shown)
VH: B1 VH with A107D
VL: B1 VL with A98G
notes: Fab
B23: Hu7A4.v9.Fab (Fab, V domains shown)
VH: B1 VH with G24A, V72R, A107D
VL: B1 VL with A98G
notes: Fab

Each binder was assayed against T2, human TfR extracellular domain with N-terminal His tag (human, UniProt P02786 89-760) (assay: ELISA, IgG;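 further: ELISA of IgG-containing supernatants tested in 1:5 serial dilutions for 1 h, bound antibody read out with HRP anti-kappa antibody and TMB substrate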).
T2 construct: Biotinylated in some assays; also called huTfR; HuTfR
T2 sequence (P02786 89-760 G142S): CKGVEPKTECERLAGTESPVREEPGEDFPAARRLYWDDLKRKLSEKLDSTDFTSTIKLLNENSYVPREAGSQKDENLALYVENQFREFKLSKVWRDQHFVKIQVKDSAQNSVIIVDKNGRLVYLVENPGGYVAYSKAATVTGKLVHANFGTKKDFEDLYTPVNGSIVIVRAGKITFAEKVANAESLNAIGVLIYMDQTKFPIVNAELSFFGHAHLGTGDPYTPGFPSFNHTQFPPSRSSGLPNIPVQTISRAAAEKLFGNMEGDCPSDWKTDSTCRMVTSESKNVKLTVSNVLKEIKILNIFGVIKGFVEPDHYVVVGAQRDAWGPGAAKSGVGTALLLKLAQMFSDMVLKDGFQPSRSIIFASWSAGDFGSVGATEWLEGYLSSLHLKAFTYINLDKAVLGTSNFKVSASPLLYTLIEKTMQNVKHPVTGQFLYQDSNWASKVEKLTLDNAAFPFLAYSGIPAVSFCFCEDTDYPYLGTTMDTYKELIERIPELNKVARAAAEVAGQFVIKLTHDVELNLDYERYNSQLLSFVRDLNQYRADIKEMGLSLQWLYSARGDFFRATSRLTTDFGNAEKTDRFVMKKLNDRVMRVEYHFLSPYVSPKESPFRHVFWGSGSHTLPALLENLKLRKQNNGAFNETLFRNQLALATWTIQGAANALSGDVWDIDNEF

Row | EC50 [µg/mL] | Binder
1 | 0.0173 | B1
2 | 0.0194 | B2
3 | 0.0159 | B3
4 | 0.0113 | B4
5 | 0.012 | B5
6 | 0.0126 | B6
7 | 0.0155 | B7
8 | 0.0135 | B8
9 | 0.0161 | B9
10 | 0.0122 | B10
11 | 0.0109 | B11
12 | 0.01 | B12
13 | 0.0087 | B13
14 | 0.0097 | B14

Molecular target: T1, cyno TfR extracellular domain …
Experiment: ELISA, IgG;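 further: ELISA of IgG-containing supernatants tested in 1:5 serial dilutions for 1 h, bound antibody read out with HRP anti-kappa antibody and TMB substrate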

Row | EC50 [µg/mL] | Binder
15 | 0.0185 | B1
16 | 0.0247 | B2
17 | 0.024 | B3
18 | 0.0163 | B4
19 | 0.0226 | B5
20 | 0.0178 | B6
21 | 0.0287 | B7
22 | 0.0418 | B8
23 | 0.0169 | B9
24 | 0.0176 | B10
25 | 0.0138 | B11
26 | 0.0162 | B12
27 | 0.0137 | B13
28 | 0.0159 | B14

What follows are binders tested against T3, human BACE1 ECD (assay: Octet, pH 7.5;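 further: antibodies captured on anti-human capture biosensor tips, dissociation followed in PBS with BSA buffer, kinetics fitted with a one-to-one binding model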).
T3 construct: analyte of the Octet assay (200 nM) and enzyme of the first short substrate assay; also called human BACE1 extracellular domain
T3 sequence (single chain, as listed by the source limits assumed): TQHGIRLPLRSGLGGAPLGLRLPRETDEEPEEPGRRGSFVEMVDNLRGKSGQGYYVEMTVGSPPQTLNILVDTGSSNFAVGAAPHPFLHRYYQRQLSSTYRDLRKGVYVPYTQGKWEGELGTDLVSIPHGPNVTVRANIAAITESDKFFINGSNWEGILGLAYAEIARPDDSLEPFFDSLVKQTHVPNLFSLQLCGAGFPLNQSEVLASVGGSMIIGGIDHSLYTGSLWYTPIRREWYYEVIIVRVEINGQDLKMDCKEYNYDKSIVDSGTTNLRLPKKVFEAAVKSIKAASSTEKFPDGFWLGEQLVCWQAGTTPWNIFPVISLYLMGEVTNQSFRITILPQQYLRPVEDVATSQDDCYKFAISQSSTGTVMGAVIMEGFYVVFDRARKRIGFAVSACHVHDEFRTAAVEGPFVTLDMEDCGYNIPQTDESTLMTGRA

Row | Kd [nM] | Binder
29 | 76 | B15
30 | 78 | B16
31 | 59 | B17

Each binder was assayed against T4, murine BACE1 ECD (assay: Octet, pH 7.5;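 further: antibodies captured on anti-human capture biosensor tips, dissociation followed in PBS with BSA buffer, kinetics fitted with a one-to-one binding model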).
T4 construct: analyte of the Octet assay (200 nM) and enzyme of the first short substrate assay
T4 sequence (single chain, as listed by the source limits assumed): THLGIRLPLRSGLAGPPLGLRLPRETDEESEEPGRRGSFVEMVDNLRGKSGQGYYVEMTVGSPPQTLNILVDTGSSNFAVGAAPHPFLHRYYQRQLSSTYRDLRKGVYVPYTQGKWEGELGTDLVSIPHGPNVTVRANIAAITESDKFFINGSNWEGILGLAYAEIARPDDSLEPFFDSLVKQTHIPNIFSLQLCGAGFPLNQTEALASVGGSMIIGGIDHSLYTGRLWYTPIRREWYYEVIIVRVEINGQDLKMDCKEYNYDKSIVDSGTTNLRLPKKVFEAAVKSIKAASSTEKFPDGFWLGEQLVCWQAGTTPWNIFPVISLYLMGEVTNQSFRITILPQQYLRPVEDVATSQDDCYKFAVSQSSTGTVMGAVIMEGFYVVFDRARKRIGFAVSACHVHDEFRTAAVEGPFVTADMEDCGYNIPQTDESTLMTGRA

Row | Kd [nM] | Binder
32 | 48 | B15
33 | 51 | B16
34 | 38 | B17

What follows are binders tested against T5, human BACE1 (R&D Systems) (human, UniProt P56817) (assay: SPR (Biacore)).
T5 construct: recombinant, commercial (R&D Systems)
T5 sequence (P56817 22-457 limits assumed): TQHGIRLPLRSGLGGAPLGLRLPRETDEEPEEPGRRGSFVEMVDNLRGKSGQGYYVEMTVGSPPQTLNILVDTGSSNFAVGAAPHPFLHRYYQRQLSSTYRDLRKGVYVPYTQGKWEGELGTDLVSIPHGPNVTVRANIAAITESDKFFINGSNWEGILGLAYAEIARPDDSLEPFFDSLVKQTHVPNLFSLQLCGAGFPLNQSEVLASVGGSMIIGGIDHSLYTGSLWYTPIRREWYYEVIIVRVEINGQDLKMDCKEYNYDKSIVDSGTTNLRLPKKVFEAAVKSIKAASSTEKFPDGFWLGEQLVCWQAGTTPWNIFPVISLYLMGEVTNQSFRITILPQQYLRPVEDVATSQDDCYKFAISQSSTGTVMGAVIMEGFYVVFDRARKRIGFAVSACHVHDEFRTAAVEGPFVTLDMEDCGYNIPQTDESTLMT

Row | Kd [nM] | Binder
35 | 130 | B15
36 | 81.8 | B16
37 | 105 | B17

What follows are binders tested against T3, human BACE1 ECD (assay: Octet, pH 5.0).

Row | Kd [nM] | Binder
38 | 0.34 | B18

Molecular target: T3, human BACE1 ECD
Experiment: Octet, pH 7.5;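 further: antibodies captured on anti-human capture biosensor tips, dissociation followed in PBS with BSA buffer, kinetics fitted with a one-to-one binding model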
Remark: another data set of the same source

Row | Kd [nM] | Binder
39 | 0.35 | B18

Molecular target: T4, murine BACE1 ECD
Experiment: Octet, pH 7.5;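 further: antibodies captured on anti-human capture biosensor tips, dissociation followed in PBS with BSA buffer, kinetics fitted with a one-to-one binding model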
Remark: another data set of the same source

Row | Kd [nM] | Binder
40 | < 0.24 | B18

Each binder was assayed against T3, human BACE1 ECD (assay: cell-based or functional assay).

Row | % inhibition of BACE1 activity, short FRET substrate [%] | Binder
41 | 56 | B15
42 | 44 | B16
43 | 63 | B17

What follows are binders tested against T4, murine BACE1 ECD (assay: cell-based or functional assay).

Row | % inhibition of BACE1 activity, short FRET substrate [%] | Binder
44 | 50 | B15
45 | 34 | B16
46 | 60 | B17

Each binder was assayed against T6, BACE1 (HTRF long substrate and FRET short substrate assays of Example 9D) (assay: cell-based or functional assay).

Row | EC50, FRET short substrate [nM] | EC50, HTRF long substrate [nM] | Binder
47 | 52.3 | 104 | B15
48 | 9.72 | 172 | B16
49 | 95.9 | 189 | B17

Molecular target: T6, BACE1 (HTRF long substrate and FRET …)
Experiment: cell-based or functional assay
Remark: another data set of the same source

Row | EC50, FRET short substrate [nM] | EC50, HTRF long substrate [nM] | Binder
50 | 3.12 | 1.38 | B19

These binders were tested against BACE1 in primary mouse cortical neurons (mouse, UniProt P56818 46-501) (assay: cell-based or functional assay).
Chain of BACE1 in primary mouse cortical neurons (P56818 46-501): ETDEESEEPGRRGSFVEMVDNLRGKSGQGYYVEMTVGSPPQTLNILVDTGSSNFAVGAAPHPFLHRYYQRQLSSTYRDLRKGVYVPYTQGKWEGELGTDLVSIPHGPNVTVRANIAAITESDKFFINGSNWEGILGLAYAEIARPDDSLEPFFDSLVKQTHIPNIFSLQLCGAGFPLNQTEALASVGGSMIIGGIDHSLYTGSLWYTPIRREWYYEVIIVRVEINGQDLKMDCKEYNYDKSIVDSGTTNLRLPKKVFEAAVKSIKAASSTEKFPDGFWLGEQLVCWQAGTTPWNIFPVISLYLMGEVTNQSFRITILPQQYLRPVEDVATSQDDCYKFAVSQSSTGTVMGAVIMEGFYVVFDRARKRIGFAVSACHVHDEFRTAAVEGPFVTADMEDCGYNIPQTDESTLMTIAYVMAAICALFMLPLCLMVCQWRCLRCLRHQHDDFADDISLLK

Row | IC50, Abeta x-40 in mouse cortical neurons [nM] | IC50, Abeta x-40 in mouse cortical neurons (5903*, second run) [nM] | maximal % inhibition of Abeta x-40 [%] | Binder
51 | 1.63 | 7.27 | 72 | B19
52 | 7.34 |  | 72 | B18

The binders below were run against T2, human TfR extracellular domain with … (assay: SPR, TfR captured by anti-His, Fab injected;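 further: single cycle kinetics with a Fab dilution series, fitted by a one-to-one Langmuir model or a steady state model, KD taken as koff over kon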).

Row | Kd [nM] | koff [s⁻¹] | kon [M⁻¹ s⁻¹] | Binder
53 | 10.9 | 0.00699 | 638000 | B20
54 | 7.26 | 0.00466 | 642000 | B21
55 | 0.255 | 0.000844 | 3.32e+06 | B22
56 | 0.401 | 0.000686 | 1.71e+06 | B23

Molecular target: T1, cyno TfR extracellular domain …
Experiment: SPR, TfR captured by anti-His, Fab injected;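 further: single cycle kinetics with a Fab dilution series, fitted by a one-to-one Langmuir model or a steady state model, KD taken as koff over kon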

Row | Kd [nM] | koff [s⁻¹] | kon [M⁻¹ s⁻¹] | Binder
57 | 73.9 | 0.0373 | 505000 | B20
58 | 41.6 | 0.0201 | 483000 | B21
59 | 1.9 | 0.00331 | 1.74e+06 | B22
60 | 4.23 | 0.00342 | 808000 | B23

From US20180057604A1 (Genentech, published 2018)
